Test results from the RNAGym collection of RNA variant scans (doi:10.1073/pnas.2313332121).
Variants at the floor of the assay were thinned out.

B1: TPR 5TU (parent)
chain: GGAUCUUCUCGAUCUAACAAAAAAGACAAAUCUGCCACAAAGCUUGAGAGCAUCUUCGGAUGCAGAGGCGGCAGCCUUCGGUGGCGCGAUAGCGCCAACGUUCUCAACUAUGACACGCAAAACGCGUGCUCCGUUGAAUGGAGUUUAUCAUG

Variants of: B1
Assay: polymerase ribozyme fitness, log enrichment relative to wild type (log ratio); higher = more active; in vitro selection for triplet polymerase activity
Method in brief: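 PCR was used to build mutant libraries for each subunit of a heterodimeric triplet polymerase ribozyme, which were then transcribed. A single in vitro selection round, in triplicate, used a frozen incubation at −7 °C and recovered extended constructs by gel excision, streptavidin beads and RT-PCR. Fitness is the logarithm of genotype enrichment relative to wild-type enrichment, averaged over replicates with inverse-variance weights. The logarithm is base 2, and after Illumina sequencing only genotypes with ≥10 input reads and ≥1 read per output were kept.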

| Variant | polymerase ribozyme fitness (log ratio) |
| --- | --- |
| C27U A30G A52C | ≤ -4.2 |
| A21U A23G A26G G84U G86U G136U U148G | ≤ -4.2 |
| A21G G25C G34A A49G C72U G92C G112U | ≤ -4.2 |
| G50U G126C A138U | ≤ -4.2 |
| A138C A142G | -3.66 |
| A29U G58U U61A U82A G86A A119G | ≤ -4.2 |
| U7G A26C U44A G74C A115C | ≤ -4.2 |
| G11A A21U G83U G117U | -2.13 |
| C76G A106G G133A | ≤ -4.2 |
| A49U G141A | -1.34 |
| C10U A60G A64U C85U C129A | ≤ -4.2 |
| A19C U55G C96A C108G C116G A119C | ≤ -4.2 |
| C76A G83A U134G | -3.45 |
| A29U A52C G68C C96U C99G A121U G126A A150U | ≤ -4.2 |
| G50C A89G C99U A122G | ≤ -4.2 |
| C38U G42A C75G A91G C95U C105U A113U C118G | ≤ -4.2 |
| G50C A137C G141U | ≤ -4.2 |
| C96A C118U U148C | -2.57 |
| G83A C105U A110G U134C | -3.98 |
| U7G A16U A28C G62C G86U C95U A110U | ≤ -4.2 |
| G59C C69U C93G G100A G124U | ≤ -4.2 |

| Variant | polymerase ribozyme fitness (log ratio) |
| --- | --- |
| C18A A89G U90G A97G | ≤ -4.2 |
| A26U A122G C131A | -3.89 |
| C43G A49C C76A G84A C105G | ≤ -4.2 |
| A47G A147U | 0.466 |
| A29C G67C A89U G94U | ≤ -4.2 |
| G83U A120C G141A | -0.169 |
| A40U C87U C105U G136U | -2.13 |
| U56A G80A U90A | ≤ -4.2 |
| A21G C51U U53A C96U G126U | -2.46 |
| U6G G83C | -0.223 |
| A12G U78G A89G C95U U109C U145C A150G | ≤ -4.2 |
| C5A C14G A19G C36A U102G C132G | ≤ -4.2 |
| A20C A39U G42A A91U G133U | ≤ -4.2 |
| U55G C75G C76G G84U C118A U139C | ≤ -4.2 |
| A147G | -0.913 |
| C69U C93U | -2.33 |
| C32G C76G G84C C118U C132G G133C | ≤ -4.2 |
| A3U G143U | -2.76 |
| U31A G58C G74C U139C U146A | ≤ -4.2 |
| A24U U33G U56A A91G C103A | ≤ -4.2 |
| A26C G86A C99U G141C | -3.84 |

| Variant | polymerase ribozyme fitness (log ratio) |
| --- | --- |
| G86U G124A U148A | -3.78 |
| C96U C114U A150U | -3.94 |
| C54U G83U | -0.319 |
| C8A G83U U90G C118A | ≤ -4.2 |
| A3G A12C C76G C93A C96A G136C | ≤ -4.2 |
| A20U A41G A49U A52C G86C C96G | ≤ -4.2 |
| A19G G48A C75G C93A | ≤ -4.2 |
| C87U C96U | -1 |
| A73C C95U | -2.49 |
| C35G C87U | -4.18 |
| C54U G58A A64C G71A | ≤ -4.2 |
| A40G C99G | -3.79 |
| A26U U31C A52U A73G C87A A107G | ≤ -4.2 |
| C32G A91C G117U A137U | ≤ -4.2 |
| G58A A107U G126U C149G | ≤ -4.2 |
| A24G C108U U148G | ≤ -4.2 |
| G71A U144A A147C | ≤ -4.2 |
| C57G G59A U78G G84A | ≤ -4.2 |
| A17G G59U A97C C99G | -2.61 |
| A21U C96G G143U | -3.69 |
| A24C A26U U31A G68U C87A A89G A98G C132G | ≤ -4.2 |

| Variant | polymerase ribozyme fitness (log ratio) |
| --- | --- |
| U56A G100U | -4.09 |
| C14G U15A C18U G25U C27G G62A C85G A138C | ≤ -4.2 |
| G65C C87G U102A | ≤ -4.2 |
| U45G U53A C85U | -1.63 |
| A39C C105U G124A | -2.08 |
| A16U A22C C51U U55A G74A C99G C114A C131U | ≤ -4.2 |
| A22U C43U A47C A91C C108U A115U A121C | ≤ -4.2 |
| C43U C72U G92U | ≤ -4.2 |
| U31G G71U | ≤ -4.2 |
| U44A A49U C72G C79G G92U A150G | ≤ -4.2 |
| C38U G117U | 0.325 |
| C75G C93A A113U A142G | -4.17 |
| U7G A20C U56A C72G A73G C85U C93G A98G A115U | ≤ -4.2 |
| A47G C69A A122G | -3.43 |
| A40C A41C A107U C108G G117C | ≤ -4.2 |
| A39C A64G C75G C85U G124A | ≤ -4.2 |
| U77A U134G | ≤ -4.2 |
| C35U G74U G83C A107C G126A U148C | ≤ -4.2 |
| A91C A98G A122U U144C A147U A150C | ≤ -4.2 |
| C131U U148C | -2.73 |
| A22C A52U U82C G86U A97G | -3.83 |
